7 molecules from US20180134804A1 (Memorial Sloan Kettering, published 2018) can be followed below.

Experiment [1] addresses T1, HLA-A0201 on T2 cells without added peptide (human).
T1 construct: Used as the negative target (T2 cells alone) and as the HLA-A0201 partner of the free peptides in the T2 stabilization assay; also called T2 alone; empty T2 cells
Description: T2 stabilization control, flow cytometry: BB7 staining of T2 cells pulsed with the peptide. In general terms: In flow cytometry, cells or beads pass a laser one at a time.
Description: The binding of the mAb to the peptide/HLA-A2 complex was measured by direct staining with mAbs conjugated to APC or by indirect staining with mAbs, followed by secondary goat anti-human IgG1/FITC mAb. The binding of the mAbs was measured by flow cytometry on a FACScalibur (Becton Dickenson) and analyzed with FlowJo 9.6.3 software. […] (F) Antibody by the above peptides to T2 cells was measured.

The target in experiment [2] is T1, HLA-A0201 on T2 cells without added …. Description: flow cytometry of T2 cells without peptide.
Experiment [3] addresses RAS10-V9A peptide/HLA-A0201 complex on peptide-pulsed T2 cells. Description: flow cytometry of T2 cells pulsed with peptide.
Experiment [4] deals with RAS10-G13A peptide/HLA-A0201 complex on peptide-pulsed T2 cells. Description: flow cytometry of T2 cells pulsed with peptide.
For experiment [5], the target named is T2, Ras10-G12C peptide/HLA-A0201 complex on peptide-pulsed T2 cells (human).
T2 construct: also called Ras-G12C
Description: flow cytometry, indirect staining of peptide-pulsed T2 cells (peptide 50 µg/ml).

The target in experiment [6] is Ras10-G12D peptide/HLA-A0201 complex on peptide-pulsed T2 cells (human). The description is as above.
For experiment [7], the target named is T3, Ras9-G12V peptide/HLA-A0201 complex on peptide-pulsed T2 cells (human).
T3 construct: also called K-Ras9 G12V/HLA A0201; T2-014A1mut
Description: flow cytometry, indirect staining of T2 cells pulsed with 50 ug/ml peptide.

Experiment [8] has as its target T4, Ras9-WT peptide/HLA-A0201 complex on peptide-pulsed T2 cells (human).
T4 construct: also called T2-0141WT
The experiment is described as above.

For experiment [9], the target named is T5, biotinylated Ras10-G12V/HLA-A0201 complex monomer (human, chain 1: C-terminal BirA substrate peptide (letters not given), enzymatically biotinylated by BirA).
T5 construct: also called Ras G12V/HLA-A0201; Ras-G12V/HLA A0201 complex monomer; not shown: the BirA substrate peptide (BSP) at the C-terminus of the heavy chain
Kind of experiment: BLI (ForteBio Octet QK), biotinylated pMHC on streptavidin sensor, mAb at 10 µg/mL, 1:1 model partial fit. A general note: BLI is a label-free optical method that tracks binding on a fibre tip over time.

The target of experiment [10] is T6, biotinylated Ras10-WT/HLA-A0201 complex monomer (human, chain 1: C-terminal BirA substrate peptide (letters not given), enzymatically biotinylated by BirA).
T6 construct: also called Ras wt/HLA-A0201; not shown: the BirA substrate peptide (BSP) at the C-terminus of the heavy chain
The experiment is described as above.

In experiment [11] the target is T7, Ras10-WT peptide/HLA-A0201 complex on peptide-pulsed T2 cells (human).
T7 construct: also called Ras WT; T2-0142WT
Description: flow cytometry of T2 cells pulsed with peptide.

Experiment [12] deals with T6, biotinylated Ras10-WT/HLA-A0201 complex …. Kind of experiment: BLI (ForteBio Octet QK), biotinylated pMHC on streptavidin sensor.
Experiment [13] addresses T1, HLA-A0201 on T2 cells without added …. Kind of experiment: T2 stabilization control, flow cytometry: BB7 staining of T2 cells pulsed with the peptide. This is another data set of the same source.
Description: The binding of the mAb to the peptide/HLA-A2 complex was measured by indirect (A) or indirect staining with mAbs conjugated to APC (B).
The target is the same in experiment [14]. Description: flow cytometry, scFv phage on T2 cells, anti-M13 detection.
For experiment [15], the target named is T7, Ras10-WT peptide/HLA-A0201 complex on …. Description: flow cytometry, scFv phage on peptide-loaded T2 cells, anti-M13 detection.
Experiment [16] concerns the target T4, Ras9-WT peptide/HLA-A0201 complex on …. The description is as above.
The target of experiment [17] is RAS10-G10A peptide/HLA-A0201 complex on peptide-pulsed T2 cells. Description: flow cytometry of T2 cells pulsed with peptide.
Experiment [18] concerns the target T8, Ras10-G12V peptide with alanine substitution at position 12/HLA-A0201 complex on peptide-pulsed T2 cells (human).
T8 construct: Position 12 counts on the Ras protein; also called peptide containing an alanine substitution at position 12
Description: flow cytometry of T2 cells pulsed with peptide.

B1: RAS10-G12S peptide (peptide)
peptide: KLVVVGASGV
notes: peptide of the complex m14; also called R10-G12S
Turning to B1, the binding result in experiment [1] was “binds”.
Regarding KLVVVGGVGV (Position 11 counts on the Ras protein) [Ras10-A11G peptide], the binding result in experiment [1] is “binds”.

B2: Ras mAb #7, full-length human IgG1 (antibody, V domains shown)
VH: EVQLVESGAEVKEPGSSVKVSCKASGGTFSSYGISWIRQAPGQGLEWMGEIIPIFGTPNYAQKFQGRVTITADESTSTAYVELSSLRSDDTAVYYCARSYYGYFDGWGQGTLVTVSS
VL: DIQMTQSPSSLSASVGDRVTITCQASQDISNYLNWYQQKPGKAPKLLIYDASNLETGVPSRFSGSGSGTDFTFTISSLQPDDFATYYCQQYKSYPLTFGGGTKVEIKR
notes: also called clone #7; Ras antibody #7
On to B2, for which the binding result is “no binding (tested: 10 ug/ml)” in [2]; “binds” in [3]; “binds” in experiment [4]; “no binding” in [5]; “no binding” in [6]; “no binding (tested: 10 ug/ml)” in experiment [7]. Besides, in experiment [8], the binding result is “no binding (tested: 10 ug/ml)”. The Kd stood at 8.77 nM in experiment [9] and 65.1 nM in experiment [10]. The koff amounted to 0.000746 s⁻¹ in experiment [9] and 0.00153 s⁻¹ in experiment [10]. In addition, the kon in experiment [9] was 85000 M⁻¹ s⁻¹; in [10] it was 23400 M⁻¹ s⁻¹.

B3: Ras mAb #2, full-length human IgG1 (antibody, V domains shown)
VH: QVQLVQSGAEVKKPGSSVKVSCKASGGTFSSYTINWVRQAPGQGLEWMGGFIPISGTVNYAQKFQGRVTITADESTSTAYMELSSLRSEDTAVYYCARPLDWTEDIWGQGTLVTVSS
VL: QSVLTQPPSVSGAPGQRVTISCTGSSSNIGAGYDVHWYQQLPGTAPKLLIYGNSNRPSGVPDRFSGSKSGTSASLAITGLQAEDEADYYCQSYDSSLSGSVFGTGTKVTVLG
notes: also called clone #2; Ras antibody #2
Consider B3, for which the binding result in experiment [2] is “no binding (tested: 10 ug/ml)”; in experiment [11], “no binding (tested: 10 ug/ml)”; in experiment [12] it was “no binding (tested: 10 µg/mL)”; in experiment [6], “no binding”; in experiment [8] it was “no binding (tested: 10 ug/ml)”. In addition, the Kd in experiment [9] turned out to be 8.88 nM.
With LVVVGAGGV (Free synthetic peptide) [RAS9-WT peptide], the binding result in [13] is recorded as “binds”.

B4: scFv phage clone #2 (scFv)
scFv: QSVLTQPPSVSGAPGQRVTISCTGSSSNIGAGYDVHWYQQLPGTAPKLLIYGNSNRPSGVPDRFSGSKSGTSASLAITGLQAEDEADYYCQSYDSSLSGSVFGTGTKVTVLGSRGGGGSGGGGSGGGGSLEMAVQLVQSGAEVKKPGSSVKVSCKASGGTFSSYTINWVRQAPGQGLEWMGGFIPISGTVNYAQKFQGRVTITADESTSTAYMELSSLRSEDTAVYYCARPLDWTEDIWGQGTLVTVSS
notes: also called K-Ras G12V/HLA A0201 specific phage clone
For B4, the binding result in experiment [14], in experiment [15] and in [16] was “no binding” in each case.

B5: Ras mAb #4, full-length human IgG1 (antibody, V domains shown)
VH: EVQLVQSGAEVKKPGASVKVSCKASGYTFTAYYLHWLRQAPGQGLEWMGWMNTNNGATRYAQKFQDRVTMTRDTSINTAYMEMSGLSSDDTAMYYCARGDISQDFADVWGQGTLVTVSS
VL: NFMLTQPHSVSESPGKTVTISCTGSSGSIASNYVQWYQQRPGSAPTILIYEDNKRPSGVPDRFSGSIDSSSNSASLTISGLKTGDEADYYCQSYDDINHWVFGGGTKLTVLG
notes: also called clone #4; Ras antibody #4
B5: the binding result in [2] is “no binding (tested: 10 ug/ml)”; in experiment [17], “no binding (tested: 10 ug/ml)”; in experiment [11], “no binding (tested: 10 ug/ml)”; in experiment [18], “no binding (tested: 10 ug/ml)”; in [12], “no binding (tested: 10 µg/mL)”; in experiment [5], “no binding”. In addition, the figures for the binding result in experiment [6], in [7] and in experiment [8] were “no binding”, “no binding (tested: 10 ug/ml)” and “no binding (tested: 10 ug/ml)”, respectively. Further, binding in experiment [9] was put at a Kd of 9.19 nM. The molecule also yielded a koff in experiment [9] of 0.00363 s⁻¹. This molecule came in with a kon in [9] of 396000 M⁻¹ s⁻¹.

In general, Kd refers to the equilibrium constant for the complex coming apart. Usually koff stands for a measure of how fast the partners let go of each other. Read a low koff as slow dissociation. Broadly, the kon is a measure of how fast the partners come together. The low end stands for slow association, the high end for fast association.
